The chains are these.
B1: Azoarcus group I ribozyme (parent)
chain: GUGCCUUGCGCCGGGAAACCACGCAAGGGAUGGUGUCAAAUUCGGCGAAACCUAAGCGCCCGCCCGGGCGUAUGGCAACGCCGAGCCAAGCUUCGGCGCCUGCGCCGAUGAAGGUGUAGAGACUAGACGGCACCCACCUAAGGCAAACGCUAUGGUGAAGGCAUAGUCCAGGGAGUGGCGAAAGUCACACAAACCGG

This data set covers variants of B1. In words: reverse-splicing fitness (ratio to wild type); higher = more active; in vitro selection; Mg2+ level not given. The procedure, abridged:
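An in vitro group I ribozyme library with randomized positions was T7-transcribed and gel-purified. In triplicate, 10 pmol RNA in EPPS pH 7.5 was reacted with 50 pmoles of a 30-nt RNA substrate for 1 h at 37 °C across several added MgCl2 levels (1–48 mM), then stopped with EDTA. Products were reverse transcribed from a substrate-complementary primer, PCR-amplified and sequenced (HiSeq 4000). Fitness is a variant's read proportion after selection over that before, normalised to wild type.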
C82G A111U A120U C169G U176A: the reverse-splicing fitness came to 0.00374.

In the case of C82G A111U A120U C169G U176G, the reverse-splicing fitness amounted to 0.00175. Under C82G A111U A120U C169G U176C stands 0.00385; under C82G A111U A120U A145U C150A U176C, 0.00518; under C82G A111U A120U A145U C150A U176G, 0.00291.

Turning to C82G A111U A120U A145U C150A U176A, the reverse-splicing fitness is 0.00457. The value for C82G A111U A145G C150G C169G U176G was 0.0062; that for C82G A111U A145G C150G C169G U176C was 0.0129. Under C82G A111U A145G C150G C169G U176A stands 0.0107; under C82G A111U A145G, 0.424; under C82G A111U A145C, 0.365. As to C82G A111U A145U, the reverse-splicing fitness is 0.387. Under C82G A111U A145G C150A C169U U176G stands 0.00791. Under C82G A111U A145G C150A C169U U176C stands 0.0149. For C82G A111U A145G C150A C169U U176A, the reverse-splicing fitness amounted to 0.0166. Under C82G A111U A145C C150U C169U stands 0.0104; under C82G A111U A145C C150U C169A, 0.00882.

On to C82G A111U A145C C150U C169G, for which the reverse-splicing fitness turned out to be 0.00762.

Regarding C82G A111U A145C C150G C169U U176G, the reverse-splicing fitness is 0.00634. Under C82G A111U A145C C150G C169U U176C stands 0.0102. Turning to C82G A111U A145C C150G C169U U176A, the reverse-splicing fitness worked out at 0.00891. Under C82G A111U A145U C150G U176G stands 0.0057; under C82G A111U A145U C150G U176A, 0.0141; under C82G A111U A145U C150G U176C, 0.0254. The value for C82G A111U A120U A145G C150U C169U U176C was 0.00501. Under C82G A111U A120U A145G C150U C169U U176A stands 0.00518; under C82G A111U A120U A145G C150U C169U U176G, 0.00302; under C82G A111U A120U A145G C169A U176A, 0.00574. As for C82G A111U A120U A145G C169A U176G, the reverse-splicing fitness is 0.00196. For the variant C82G A111U A120U A145G C169A U176C, the reverse-splicing fitness was 0.00529. C82G A111U A120U A145U C150G C169U U176C: the reverse-splicing fitness turned out to be 0.0029. The value for C82G A111U A120U A145U C150G C169U U176G was 0.00286. As to C82G A111U A120U A145U C150G C169U U176A, the reverse-splicing fitness came to 0.00286.

On to C82G A111U A145U C150U C169G U176C, for which the reverse-splicing fitness turned out to be 0.0142. As for C82G A111U A145U C150U C169G U176A, the reverse-splicing fitness amounted to 0.0132. Under C82G A111U A145U C150G stands 0.0323.

In the case of C82G A111U A145U C150A, the reverse-splicing fitness turned out to be 0.0284. On to C82G A111U A145U C150U, for which the reverse-splicing fitness amounted to 0.239. The value for C82G A111U A120U A145G C150U C169U was 0.00655; that for C82G A111U A120U A145G C150U C169G was 0.00641; that for C82G A111U A120U A145G C150U C169A was 0.00699. As to C82G A111U A145C C150A C169A U176A, the reverse-splicing fitness is 0.0125. The value for C82G A111U A145C C150A C169A U176G was 0.0075; that for C82G A111U A145C C150A C169A U176C was 0.00716; that for C82G A111U A145C C150U U176G was 0.0188.

For C82G A111U A145C C150U U176C, the reverse-splicing fitness is 0.0544. Take C82G A111U A145C C150U U176A: the reverse-splicing fitness amounted to 0.0473. Under C82G A111U A120U A145U C150G C169G U176G stands 0.0021.

On to C82G A111U A120U A145U C150G C169G U176C, for which the reverse-splicing fitness turned out to be 0.00282. Consider C82G A111U A120U A145U C150G C169G U176A, for which the reverse-splicing fitness was determined as 0.0031. On to C82G A111U A145U C150U C169A U176A, for which the reverse-splicing fitness worked out at 0.0143. The value for C82G A111U A145U C150U C169A U176C was 0.0125.

For the variant C82G A111U A145U C150U C169A U176G, the reverse-splicing fitness amounted to 0.00678. The value for C82G A111U A120U A145U U176C was 0.0192. With C82G A111U A120U A145U U176G, the reverse-splicing fitness amounted to 0.00425. Under C82G A111U A120U A145U U176A stands 0.0108. Under C82G A111U A120U C150G U176A stands 0.00389; under C82G A111U A120U C150G U176C, 0.00683. For the variant C82G A111U A120U C150G U176G, the reverse-splicing fitness was 0.0026. C82G A111U A145C C150U C169A U176G: the reverse-splicing fitness was 0.00702. Under C82G A111U A145C C150U C169A U176C stands 0.00701. Under C82G A111U A145C C150U C169A U176A stands 0.0133; under C82G A111U A145C C150A U176A, 0.0163. Turning to C82G A111U A145C C150A U176C, the reverse-splicing fitness stood at 0.0187.

As for C82G A111U A145C C150A U176G, the reverse-splicing fitness stood at 0.00844. Under C82G A111U A145G C150U C169U U176C stands 0.0146; under C82G A111U A145G C150U C169U U176G, 0.00638. Under C82G A111U A145G C150U C169U U176A stands 0.0152; under C82G A111U A120U C150U U176A, 0.00931.

As for C82G A111U A120U C150U U176C, the reverse-splicing fitness was determined as 0.0123. Under C82G A111U A120U C150U U176G stands 0.00391; under C82G A111U A145G C150A C169A U176C, 0.0216; under C82G A111U A145G C150A C169A U176A, 0.0183. The value for C82G A111U A145G C150A C169A U176G was 0.00721.

In the case of C82G A111U A145G C150U C169G U176C, the reverse-splicing fitness was 0.0191. The value for C82G A111U A145G C150U C169G U176A was 0.0141.

On to C82G A111U A145G C150U C169G U176G, for which the reverse-splicing fitness came out at 0.0058.

On to C82G A111U A145U C150U C169A, for which the reverse-splicing fitness is 0.00988. Under C82G A111U A145U C150U C169G stands 0.00884; under C82G A111U A120U A145U C150A C169G U176A, 0.00335. The value for C82G A111U A120U A145U C150A C169G U176G was 0.00186.

On to C82G A111U A120U A145U C150A C169G U176C, for which the reverse-splicing fitness worked out at 0.003. The value for C82G A111U A145C C150U C169G U176C was 0.0132.

The values are drawn from the RNAGym collection of RNA variant scans (doi:10.1093/molbev/msab373).
